“And” between values parts separate entries of the source, which are not always exact repeats. Equal values may be shown once. Read-outs that look alike come from different tables or passages of the source. One block for each substance: values may come before it.
Key:
[1] = biological target: Photosystem I (PSI) of Leptolyngbya sp. PCC 7124 (Leptolyngbya sp. PCC 7124 (endogenous)); assay: native gel or EMSA
[2] = biological target: Photosystem I (PSI) of Fischerella muscicola PCC 7414 (Fischerella muscicola PCC 7414 (endogenous)); assay: native gel or EMSA
[3] = biological target: Photosystem I (PSI) of Fischerella muscicola PCC 7414 (Fischerella muscicola PCC 7414 (endogenous)); assay: native gel or EMSA; remark: listed apart in the source
[4] = biological target: Photosystem I (PSI) of Fischerella muscicola PCC 7414 (Fischerella muscicola PCC 7414 (endogenous)); assay: transmission electron microscopy with single particle analysis
[5] = biological target: Photosystem I (PSI) of Chroococcidiopsis sp. TS-821 (Chroococcidiopsis sp. TS-821 (endogenous)); assay: native gel or EMSA
[6] = biological target: Photosystem I (PSI) of Chroococcidiopsis sp. TS-821 (Chroococcidiopsis sp. TS-821 (endogenous)); assay: native gel or EMSA; remark: listed apart in the source
[7] = biological target: Photosystem I (PSI) of Chroococcidiopsis sp. TS-821 (Chroococcidiopsis sp. TS-821 (endogenous)); assay: sucrose density gradient ultracentrifugation
[8] = biological target: Photosystem I (PSI) of Pseudanabaena sp. B SP48 (Pseudanabaena sp. B SP48 (endogenous)); assay: native gel or EMSA
[9] = biological target: Photosystem I (PSI) of Synechocystis sp. PCC 7509 (Synechocystis sp. PCC 7509 (endogenous)); assay: native gel or EMSA
[10] = biological target: Photosystem I (PSI) of Thermosynechococcus elongatus BP-1 (Thermosynechococcus elongatus BP-1 (endogenous)); assay: native gel or EMSA
[11] = biological target: Photosystem I (PSI) of Microcystis sp. PCC 7806 (Microcystis sp. PCC 7806 (endogenous)); assay: native gel or EMSA
[12] = biological target: Photosystem I (PSI) of Synechocystis sp. PCC 6803, wild type (Synechocystis sp. PCC 6803 (endogenous)) (UniProt P37277); assay: native gel or EMSA
[13] = biological target: Photosystem I (PSI) of Nostoc sp. PCC 7120 (Nostoc sp. PCC 7120 (endogenous)); assay: native gel or EMSA
[14] = biological target: Photosystem I (PSI) of Nodularia PCC 73104 (Nodularia PCC 73104 (endogenous)); assay: native gel or EMSA
[15] = biological target: Photosystem I (PSI) of Chroococcidiopsis thermalis PCC 7203 (Chroococcidiopsis thermalis PCC 7203 (endogenous)); assay: native gel or EMSA
[16] = biological target: Photosystem I (PSI) of Gloeocapsa sp. PCC 7428 (Gloeocapsa sp. PCC 7428 (endogenous)); assay: native gel or EMSA
[17] = biological target: Photosystem I (PSI) of Gloeocapsa sp. PCC 7428 (Gloeocapsa sp. PCC 7428 (endogenous)); assay: native gel or EMSA; remark: listed apart in the source
[18] = biological target: Photosystem I (PSI) of Chroococcidiopsis sp. PCC 6712 (Chroococcidiopsis sp. PCC 6712 (endogenous)); assay: native gel or EMSA
[19] = biological target: Photosystem I (PSI) of Chroococcidiopsis sp. PCC 6712 (Chroococcidiopsis sp. PCC 6712 (endogenous)); assay: transmission electron microscopy with single particle analysis
[20] = biological target: Photosystem I (PSI) of Chroococcidiopsis sp. PCC 7434 (Chroococcidiopsis sp. PCC 7434 (endogenous)); assay: native gel or EMSA
[21] = biological target: Photosystem I (PSI) of Nostoc sp. PCC 9335 (Nostoc sp. PCC 9335 (endogenous)); assay: native gel or EMSA
[22] = biological target: Photosystem I (PSI) of Planktothrix paucivesiculata PCC 8926 (Planktothrix paucivesiculata PCC 8926 (endogenous)); assay: native gel or EMSA

Substance: Photosystem I (PSI) of Chroococcidiopsis sp. TS-821 (complex)
stoichiometry N [5]: 3 | stoichiometry N [6]: 4 and 2 | stoichiometry N [7]: 2

Substance: Photosystem I (PSI) of Pseudanabaena sp. B SP48 (complex)
stoichiometry N [8]: 3

Substance: Photosystem I (PSI) of Synechocystis sp. PCC 7509 (complex)
stoichiometry N [9]: 4 and 2

Substance: Photosystem I (PSI) of Thermosynechococcus elongatus BP-1 (complex)
stoichiometry N [10]: 3

Substance: Photosystem I (PSI) of Synechocystis sp. PCC 6803, wild type (from UniProt P37277 1-157) (complex)
stoichiometry N [12]: 3

Substance: Photosystem I (PSI) of Nostoc sp. PCC 7120 (complex)
stoichiometry N [13]: 4

Substance: Photosystem I (PSI) of Nodularia PCC 73104 (complex)
stoichiometry N [14]: 4

Substance: Photosystem I (PSI) of Gloeocapsa sp. PCC 7428 (complex)
stoichiometry N [16]: 4 and 2 | stoichiometry N [17]: 3

Substance: Photosystem I (PSI) of Chroococcidiopsis sp. PCC 6712 (complex)
stoichiometry N [18]: 3 | stoichiometry N [19]: 3

Substance: Photosystem I (PSI) of Planktothrix paucivesiculata PCC 8926 (complex)
stoichiometry N [22]: 3

Results, then the substance that gave them:

stoichiometry N [1]: 2
Substance: Photosystem I (PSI) of Leptolyngbya sp. PCC 7124 (complex)

stoichiometry N [2]: 4 | stoichiometry N [3]: 3 | stoichiometry N [4]: 4
Substance: Photosystem I (PSI) of Fischerella muscicola PCC 7414 (complex)

stoichiometry N [11]: 2 and 3
Substance: Photosystem I (PSI) of Microcystis sp. PCC 7806 (complex)

stoichiometry N [15]: 2
Substance: Photosystem I (PSI) of Chroococcidiopsis thermalis PCC 7203 (complex)

stoichiometry N [20]: 2
Substance: Photosystem I (PSI) of Chroococcidiopsis sp. PCC 7434 (complex)

stoichiometry N [21]: 3 and 2
Substance: Photosystem I (PSI) of Nostoc sp. PCC 9335 (complex)

Source: publication doi:10.1101/544353
